Data taken from a protein production outcome set (Wang et al. 2014).

Test: label from the status in PepcDB records

Sequence | protein production
MKRVPWVVGGLILIMAYNAALGTLAYWQRRDIIDESLREAVVVADILVREVEANLDRIDRTLSGLTEVLRAYPSAIDVHDPFTHRLLLRRHAITPSLAALFLIGGDGRLRNASLTDKVSEIDVSGEDYFAFHLSNVDDEFFIGAVTTNRLDKSWVIPVSRAVRDSFGRLTGVVAATITTDSIDQMIHSHQLSEGFAVTITQRDAGMIGCLGFTRCWGEGAPHRGDEGLAESGGSGEEVHYLPNGPGVGAFLRGPTYGVEVTVQASDRTLLQPWREKLAFILVLQVFGTLGLGFGITSLYYQMHHRRVSLLDLERANASLESKVAERTRQLAEGEERMRGFIMAARDAVVIIDQKGIISEFNPSATELFGYDVEEVRGQSVNMLMPATYARDHDGHLRKGKPSGQRAIGRGREMIGRRKNGSEFPIELTVGTQSFDGTRVHIGVIRDITERKATEETLRRLANIDGLTGVLNRRSFTEESELLLSLANRHGRRLSMMIVDADHFKGVNDTYGHDAGDRVLKALTGEIAGVLRKTDLLGRIGGEEFAILLPETDQEGAEGLAWRVVLAIRALEVPLPEGGVLKVTVSVGVSCRNTEAATFDWMLKEADTALYAAKHGGRDRVACFGQTQSVARS | failed
MEEKNIHMQPNINYSYRNPNMYNMNYHNPIVPPPQQQMQLFVNDWKSILSPMQTCKIKQQFDDREFVADYFMGFKLDFNNKYLILDASTELMKFTACEKSEFCYRNCLPKICIPMNMKILSYGKEISKPDILMEKDCTCTFLCFNRPTIKMYDFSNNNNKELIGTIKTPYRCCSYNFNLFDPSNNKIMYMDDTCCQMSILCPCPWGPFKYSNFFLRDANSKEKIAHLRKEVPFLKFVKRDIDNYTLDFEQVQNPEWKMMLLAFALFLDYMYYDRK | failed
MQIFVNGETIETEVITLNLLLEELGYEGNWLATAVNAEVVPIDARSRCVLHEGDKIEILSPMQGG | failed
MGKRLYAVAYDIPDDTRRVKLANLLKSYGERVQLSVFECYLDERLLEDLRRRARRLLDLGQDALRIYPVAGQVEVLGVGPLPELREVQVL | not failed
MLHFQHTSIINAPPEVVWKFHERPDILQLLTPPWQPVRVVRREGGLEVGAITEFKLFLGPVPLTWLARHTECDKYRLFTDTQISGPFESWIHRHQFQPENGKTKLIDDVSYVMPGGETIEFIGGWLIQAQLEAMFRYRHYVTKRECE | failed
MKENLELVEFFEYLLILVLNMLVASIVFLQEYCIGSIRLSHYRRIFATVMAIRSLVSIWIIYPMTATLLGTLNILVIQSIILLFLWGLMQCVKKYRGKWYITMIALIIYGLSCYFHIMYAKTV | failed
MSEQNEKEGAVGSLERGLLIIRVLLDAPGPMSLAELAQELALGPSTVHRLLGTLTKLGQVVREPRGKRYLAAPQVLASLSFQHPITLVRLACRSAIEELRERTGETSAFVLFIGYERLVQDFVIGQRLLSPNYQTWLRSPMHGSASGKLLLSTVPENNWVDLIGHEPYQAHTPSTITTYEEMVAEIQAIRRQHYCVSKNEGYEGVSAFGYPVVVLGKTVGCITLTVESASLNESREAFLIQEMLRCVKSIQAVSGSLKLLHDWLF | failed
MDDVLRRNPLFAALDDEQSAELRASMSEVTLARGDTLFHEGDPGDRLYVVTEGKVKLHRTSPDGRENMLAVVGPSELIGELSLFDPGPRTATGTALTEVKLLALGHGDLQPWLNVRPEVATALLRAVARRLRKTNDAMSDLVFSDVPGRVARALLDLSRRFGVQSEEGIHVVHDLTQEELAQLVGASRETVNKALADFAQRGWLRLEARAVILLDVERLAKRSR | failed
MHEWGLSEELKIQTKQMIEIAEKELSIMRNAIDKEDECILCKMEDIHHMLANVQTLAATYYIQAYLSPYTESSSFITTAIQHLSARKHGALIVVERNETLEALIQTGTTLNAHLTAPLLESIFYPGNPLHDGAVLVKNNHIVSAANILPLTKSTEVDPELGTRHRAAIGLSEKSDALILVVSEETGRTSFALNGILYTISL | not failed
MDIKDLMKKWSEQAENMRMFHMQELKENGSEWKKLLQENLKDCKGKKVLDAGCGTGFLAILLAQDGWEVTAIDSSEAMLEEGKKTAEELGLSDKITFLLKDAHSTDFPEHLFDAVVSRHASWLFTAPETVYKEWKRILKPGGIMLNIDANWLKPIWNTDEFEKFKSYEAELVKQYGEFRDYYHDEQMINILKKFPLAYINRPEWDEKMLKKIDFKEIASRLLSKEKYMDAFQAARYKTIPMFVIKAKNIE | failed
MLISHSDLNQQLKSAGIGFNATELHGFLSGLLCGGLKDQSWLPLLYQFSNDNHAYPTGLVQPVTELYEQISQTLSDVEGFTFELGLTEDENVFTQADSLSDWANQFLLGIGLAQPELAKEKGEIGEAVDDLQDICQLGYDEDDNEEELAEALEEIIEYVRTIAMLFYSHFNEGEIESKPVLH | not failed
MDVEKIPGSVCLVAPHANANPTWPADLAWVKQVLFRMGIKVVATLTHRTPIAEIENIASAETSLLLSHDAGQKAADYLSATFGIEQVCKGIPLEHHHHHH | failed
MPSQSFNAFCPDWATALLNGFSQIFLQRHPLCGLLCLLAILVSAPALLGAALLGALAGLLTAQRRWYAKADRQAGLFSYNGVLLGLLLGLYLPWSVLLPPLIIAAGGLSAIITQQWLKRARNPASLPAYTAPFVGLGWLLLSLIEPLPAATQGVPGLSLANLLGGLFQGLGQIMFLGQPLAGLLILLGLLLASRRAAAWALFGSACGLLFALLLQEHAQALQGLGGYNCALVALALGQQARHPWRPLLGMLLALLISPGLVALGLAPLTAPFVLACWLVHTVDRVLGRNVRGDAPCAPPANPPRLR | failed
MLTFAPLNFLAIGVGATLGAWLRWVPGLRLNGAGWPWGTLTANLVGGYLIGVMVALIASHPEWPAWIRLAAVTGFLGGLTTFSTFSAETVDMLERGVYATAAAYAGASLAGSLAMTGLATVRLLLR | failed
MSLKGKRIGFGFTGSHCTYEEVMPHLEKLIAEGAEVRPVVSYTVQSTNTRFGEGAEWIKKIEEITGFKAINSIVGAEPLGPKIPLDCMVIAPLTGNSMSKFANAMTDSPVLMAAKATLRNGKPVVLAVSTNDALGLNGVNLMRLMATKNIYFVPFGQDAPEKKPNSMVARMELLEDTVLEALQGKQLQPVVVEKFRYMNLEHHHHHH | not failed
MQNIVIRQCGHEDESWMNTLYKQNSKQALYQLGKSLDEGFVQDNAHFDQVMKQWIEIGAVYAAEIEGDPVGFLVIQRERAQHGPEIIQYISSHENILILQERALSDLHYAGYGPVLVSPHARGKGVAKALHDHALHILKAEKFDAMVAFVDAENPTSLKIHVDALDMQIIDKVVLASGQFFIIGQVIG | failed
MLKGIPKIIPPELLKVLCEMGHGDQLVIADGNFPAESIGKNAIVVRMDGHGGGEILKAILTVFPLDTYVDKPATLMEKVPGDTVATPIWDVYAGLIKEHDERGADAIGSLERFAFYEQAKNAYCVIASGESAQYANLILQKGVVFNAE | not failed
MLPNLNRIPQVEQYVLDYLDDLQCQHFEGDIATNYADRLSLATDNSVYQQLPQAILFPKTVADIVRITKLANLPEYQSISFTPRGGGTGTNGQSINNNIIVDLSRHMTA | failed
MDPKSCENSSDVKGQTSDSVSKKVLIEEEEDVKKPQQGKENDSRMAKDVVSCSSNISAHVVHEEVADNVTAVSCNEAESDISKAKAKEFHTIDLSGVGERICRICHFGSDQSPEASGDDKSVSPELIEIGCKCKNELGLAHFHCAEAWFKLRGNR | failed
MNWIILTIAGCFEVLFTFCMGKVKETTGTEMYLWFTGFLIATLISMLLLVKATHNLPIGTAYAVWTGIGAVGTVLVGILVFKEPAGFWRLFFIVMLIGSIIGLKMVSHG | failed
MTLYKQLVAGMIAVFILLLISVFTIEFNTTRNSLEQQQRSEVNNTINTVGLALAPYLEKKDTIAVESVINALFDGSSYSIVRLIFLDDGTEILRSYPIQPNNVPAWFTQLNLFEPIHDRRVVTSGWMQLAEVEIVSHPGAAYAQLWKALIRLSIAFLAILVIGMFAVAFILKRSLRPLQLIVNKMEQVANNQFGEPLPRPNTRDLIYVVDGINKMSEQVEKAFKAQAKEAQQLRERAYLDPVSHLGNRAYYMSQLSGWLSESGIGGVAILQAEFIKELYEEKGYEAGDGMVRELADRLKNSITIKDISIARISTYEFGIIMPNMDETELKIVAESIITCVDDINPDPTGMAKANLSLGVVSNKRQSSTTTLLSLLDNALLKRNPILS | failed
MQYRIRRENEAPEAKNAGETLWERDMMREVLLSAYRDRRRERMWKNIWRAVSTLILVALIAGIFRKDEAALQLAGNTPHTAVVNLYGEIGNGVEDQVKKLKDGMEAAYKNPQAKAIVIRANSPGGSPVVSNTAFEEIRRLKAQHPGIPVYLVAEDMCASGCYYIAAAADKIYADPSSIVGSIGVIGSSFDATGLMEKIGVKRRVKIAGSNKGMGDPFSPETPEQSKIWEEMLTGIHGEFIKAVKTGRGGRLKFRQYPDVFSGRVYTGADALKVGLVDGLGNIYSVARDVVKAPDVVDYTPKDDFGRILGRRFGAELKASVREALQAVR | failed
MKNRSLTLRLISVLCLTALFVWLGSTLVAWWQVRHDVNKVFDAQQVLFAERLANSDLSTILLESSTTLNKNSQSVLKKSYDDDALAFAIFSKTGKLLFSDGRNGKDFIFNYKTGFYNANIYDDDDKWRIFWRMAANGELVIAVGQELDYREDLIEEMILGQMWIWFASLPILIIVLGWLIHKELRPIKRLSQEVQTRKSGDVSLLNTEGLPVEILPLVKNLNQFFDRTSAMLQRERRFTSDAAHELRSPLAALRIQIEVAQLAGDDVALREQALLHLTQGIDRASQLIEQLLTLSRLDNLQALETLQLLDWEAIVQSLISERYFVAEKRKITLVFEKESEPKQKQGQSILVSLMLRNLLDNAIKYCPEDTIVSVKISSSQIIIEDNGGGVEPEDLKKLGQRFYRPAGQNEKGSGLGLSIVMRIAELHGFKVRLENVVKEGRRIGLKAIISL | failed
MKIMIFICGEGLGHTSRCLALGKELLNAGHEIKFGAYGYSKELVEKTGYTAQEIPSEIKLVGKAGSLDLTGSIEATLKSAQLLGGPKLLKLLREFKPDVVVSDSYYLGTLAAMVLKLPVYLIINQSNMEEFFKNRGLEHHHHHH | not failed
KTNFKIVLKEDSELLQEVVVTGYGGKVSRSKLTNSISTVNPQMLDKGIYTNPSQALSGSVPGLKVSLTSGNPTSSPKIILRGGTNFDGSGGPLVVVDGQLRDNFDDINPQDIASMDVLKDAGATAIYGARASNGVILITTKSGKAGH | failed
LLARALYDNCPDCSDELAFSRGDILTILEQHVPESEGWWKCLLHGRQGLAPANRLQIL | not failed
RFEHGTVLAECLSPASPDTSCELLKRAAKFLAYVHGSDDPASGRIGGVRKEVRNEVRMWLRAVLPDEPSDGANELFEEWWALLEGIGLPPQPRRDAHAFNWLVTDNDRIIAVDLEAARWRPMGYELAQLT | failed
ERIPLAVGDTPATLYRLEGDAEAPLAVVTHGFGGSRQMMEAISLTLARAGLAVVSFDFRGQGRSAIPMSPDAFPNEAGSSGTTVQLVRQTLEVVEAARALPGIAGPPALIGHSMATDILVRAADRLPEVGPVALISAYSRQVTPETPARLLILSGQREGGLREVALEMARQVAPDAAEGETVRAGAVERRASVAPYVGHAGVLWSPTTLRELRDWL | failed
